Data from PMC4719083, “Myosin IXa Binds AMPAR and Regulates Synaptic Structure, LTP, and Cognitive Function” (Frontiers in Molecular Neuroscience, 2016).

Target: T1, GST C-terminal (Myo9a amino acids 2330-2626 fused to GST) (rat, UniProt Q9Z1N3 2330-2626)
T1 construct: Myosin IXa (Myo9a), rat, NCBI AJ001713, amino acids 2330-2626 (C-terminus); Cloned into pGEX-4T1; also called Myo9a GST C-term; Myo9a C-terminus; source: E. coli BL21, purified, immobilized on glutathione-Sepharose 4B beads
T1 sequence (looked up): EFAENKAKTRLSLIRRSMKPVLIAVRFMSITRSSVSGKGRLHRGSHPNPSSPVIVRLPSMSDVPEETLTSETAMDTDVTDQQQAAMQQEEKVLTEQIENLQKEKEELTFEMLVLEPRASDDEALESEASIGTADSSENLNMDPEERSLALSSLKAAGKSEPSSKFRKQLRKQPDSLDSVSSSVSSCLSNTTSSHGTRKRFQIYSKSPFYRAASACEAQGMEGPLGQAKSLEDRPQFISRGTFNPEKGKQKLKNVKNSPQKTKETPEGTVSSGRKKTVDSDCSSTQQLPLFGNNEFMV
Assay: pull-down; purified GluA2 C-term (released from GST by thrombin, in PBS) incubated with glutathione Sepharose 4B-coupled GST or GST C-term from Myo9a; immunoblot
Settings: both partners purified

B1: GluA2 C-term (GluA2 intracellular C-terminal tail, amino acids 834-883, released from GST by thrombin) (domain or fragment, rat, UniProt P19491 834-883, looked up)
chain: EFCYKSRAEAKRMKVAKNPQNINPSSSQNSQNFATYKEGYNVYGIESVKI
notes: AMPA receptor subunit GluA2, rat, NCBI M85035, intracellular C-terminal tail, amino acids 834-883; Cloned into pGEX-4T1; also called purified GluA2 C-terminus; GluA2 C-terminal tail; source: E. coli BL21, purified with glutathione-Sepharose 4B resin, released by thrombin
Q: Does B1 bind?
A: binds
